Experimental data: patent publication US8278415B2, “Dimeric high affinity EGFR constructs and uses thereof” (Centocor, Inc., priority 2006, dated 2012)

Tests used:
A431 cells = assay: FACS of P190-MMB constructs or cetuximab on A431 cells; assay type: cell-based, human; conditions: excess EGF
EGFR = target: T1, EGFR (Homo sapiens, UniProt P00533); assay: FACE (Fast Activated Cell-based ELISA) of EGFR phosphorylation
T1 construct: endogenous in cells

sEGFR-MMB = target: T2, sEGFR-MMB (Homo sapiens, UniProt P00533); assay: P190-MMB constructs, solid phase assays (BIAcore and ELISA) on immobilized sEGFR-MMB; assay type: binding
T2 construct: made in house; host or cells: HEK 293E
Text: In contrast, 190-MMB as the 4316 construct, binds EGFR and the presence of excess EGF promotes its binding.

EGFR phosphorylation (receptor activation) (EGFR; absence of EGF): did not induce EGFR phosphorylation | binding in solid phase assays and cell-based FACS (sEGFR-MMB; comparison of linker lengths): best binder
B1: 4316: P190-MMB construct with the longest linker, Flex GGGGS, n 4, SEQ ID NO: 81 (protein)
chain: GGDPCTWEVWGRECLQGGGGSGGGGSGGGGSGGGGSCPPCPAPEAAGGPSVFLFPPKPKDTLMISRTPEVTCVVVDVSQEDPEVQFNWYVDGVEVHNAKTKPREEQFNSTYRVVSVLTVLHQDWLNGKEYKCKVSNKGLPSSIEKTISKAKGQPREPQVYTLPPSQEEMTKNQVSLTCLVKGFYPSDIAVEWESNGQPENNYKTTPPVLDSDGSFFLYSRLTVDKSRWQEGNVFSCSVMHEALHNHYTQKSLSLSLGK
effect of EGF on binding to A431 (A431 cells): enhanced binding | interference with EGF activation of EGFR (EGFR): nor interfere with EGF activation of EGFR | on-rate (sEGFR-MMB; BIAcore, no dissociation constant obtained): much more pronounced on-rate than the other constructs
